For this test, the target named is human NGF (Homo sapiens, UniProt P01138). As to the kind of experiment: binding affinity; method not given.

Consider one molecule from patent publication US20040131615A1, “Methods for treating pain by administering a nerve growth factor antagonist and an opioid analgesic and compositions containing the same” (priority 2002, published 2004).

Sequence of human NGF (P01138 122-241 limits assumed): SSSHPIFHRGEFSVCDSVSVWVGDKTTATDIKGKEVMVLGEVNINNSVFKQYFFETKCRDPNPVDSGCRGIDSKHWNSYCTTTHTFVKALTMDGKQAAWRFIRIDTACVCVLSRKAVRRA

B1: humanized anti-NGF antibody E3 (antibody, V domains shown)
VH: VQLQESGPGLVKLPSETLSLTCTVSGFSLIGYDLNWIRQPPGKGLEWIGIIWGDGTTDYNSAVKSRVTISKDTSKNQFSLKLSSVTAADTAVYYCARGGYWYATSYYFDYWGQGTLVTVS
VL: DIQMTQSPSSLSASVGDRVTITCRASQSISNNLNWYQQKPGKAPKLLIYYTSRFHSGVPSRFSGSGSGTDFTFTISSLQPEDIATYYCQQEHTLPYTFGQGTKLEIK
B1: the Kd amounted to 70 pM.
